From patent publication US8669352 (PANGENETICS B V, dated 2014) come the findings set out here.

By kon is commonly meant the rate constant with which the complex forms. Broadly, the EC50 is the concentration at which the effect is half-maximal. Lower therefore signals greater potency. Usually koff stands for a measure of how fast the partners let go of each other.

Experiment [1] addresses T1, Recombinant human CD40 extracellular domain fused to human IgG1-Fc domain (huCD40-Fc; R&D Systems 149-CD-50) (human, UniProt P25942 21-193).
T1 construct: extracellular domain; Bought reagent; also called human CD40-Fc; not shown: human IgG1-Fc domain
Description: SPR (Biacore 3000), immobilised huCD40-Fc, Langmuir (1:1) model, ka. On the procedure: (§1) The kinetics of ch5D12 (PG100) and PG102 (I29L variant) binding to human CD40 were compared by surface plasmon resonance at a constant temperature of 25.0° C., using a Biacore 3000 instrument. Recombinant human CD40 extracellular domain fused to human IgG1-Fc domain (huCD40-Fc; R&D Systems catalogue number 149-CD-50) was used as the target antigen in these experiments. HuCD40-Fc (1 µg/mL in 10 mM acetate buffer, pH 5.0) was coupled via the amine groups of Lys residues to carbodiimide-activated Biacore CM5 chips, resulting in an antigen immobilization level of 127.4 RU. For kinetic analyses, dilution series of ch5D12 (PG100) and PG102 (range 10.0 µg/mL to 0.313 µg/mL) were prepared in Biacore Running Buffer (HEPES-buffered saline containing EDTA and surfactant; HBS-EP). Kinetic analyses were performed at a flow rate of 30 µL/min. Samples were allowed to bind for 4 min and to dissociate for 5 min, at the same flow rate. The chip surface was then regenerated for 30 seconds using 30 mM NaOH and a baseline re-established in HBS-EP for 2.5 min before injection of the next sample. […]
(§2) BIAcore control software (Version 3.2) was used for data collection and BIAevaluation software (Version 4.1) was used for analysis of kinetic data. Binding parameters were calculated using two different models of molecular interaction: a bivalent analyte model and Langmuir 1:1 binding model.
On the technique in general: Surface plasmon resonance follows binding to a sensor surface in real time, without labels.

In experiment [2] the target is T2, human CD40 (human, UniProt P25942 21-277). Description: cell-based or functional assay.
T2 sequence (P25942 21-277): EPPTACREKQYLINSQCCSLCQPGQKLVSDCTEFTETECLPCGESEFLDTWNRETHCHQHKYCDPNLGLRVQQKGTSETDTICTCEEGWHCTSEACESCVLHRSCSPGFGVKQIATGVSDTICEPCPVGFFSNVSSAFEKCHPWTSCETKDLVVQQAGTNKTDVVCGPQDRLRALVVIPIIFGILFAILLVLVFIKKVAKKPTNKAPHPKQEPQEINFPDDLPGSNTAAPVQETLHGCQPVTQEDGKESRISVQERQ
For experiment [3], the target named is T3, huCD40-muIg (Ancell, catalogue number 504-020) (human, UniProt P25942 21-193).
T3 construct: also called CD40-Fc; human CD40-Fc; not shown: murine Ig part
T3 sequence (P25942 21-193): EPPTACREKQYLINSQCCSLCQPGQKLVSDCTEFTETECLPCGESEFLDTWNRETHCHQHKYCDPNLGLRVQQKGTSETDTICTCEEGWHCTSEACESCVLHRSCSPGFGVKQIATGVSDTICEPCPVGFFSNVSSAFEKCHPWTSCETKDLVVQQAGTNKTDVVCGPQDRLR
Description: ELISA on coated human CD40-Fc; half-maximal binding concentration. On the procedure: (§3) Plates were washed 3 times with 200 μL/well wash buffer (0.05% Tween-20 in PBS). Subsequently, plates were blocked with 200 μL/well blocking buffer (5% BSA Fraction V [Roche, catalogue number 735094] in wash buffer) and incubated for 1 h at 37° C. (humid environment). Plates were washed 3 times with wash buffer. Test antibodies (ch5D12 (PG100), PG102, and negative control chimaeric anti-huCD86 antibody chFUN-1) were diluted in the range 0-1200 ng/mL in blocking buffer and transferred to assay plates in a final volume of 100 μL/well, followed by incubation for 1 h at 37° C. (humid environment). Plates were washed 3 times with wash buffer followed by addition of 100 μl/well goat anti-human kappa-AP detection antibody (Southern Biotech Associates catalogue number 2060-0) diluted 1:1000 in blocking buffer. Plates were incubated for 1 h at 37° C. in a humid environment before washing 3 times with wash buffer and a further single wash with PBS.
A general note: An ELISA detects its analyte on a solid surface through an enzyme-linked reagent.

The target in experiment [4] is T1, Recombinant human CD40 extracellular …. Description: SPR (Biacore 3000), immobilised huCD40-Fc, bivalent binding (1:2) model, ka1. On the procedure: as §1, §2
For experiment [5] the target is unchanged. Description: SPR (Biacore 3000), immobilised huCD40-Fc, Langmuir (1:1) model, kd. On the procedure: as §1, §2
Experiment [6] shares this target. Description: SPR (Biacore 3000), immobilised huCD40-Fc, bivalent binding (1:2) model. On the procedure: as §1, §2
For experiment [7] the target is unchanged. Description: SPR (Biacore 3000), immobilised huCD40-Fc, bivalent binding (1:2) model, kd1. On the procedure: as §1, §2
Experiment [8] has as its target T3, huCD40-muIg (Ancell, catalogue number …). Description: ELISA on coated human CD40-Fc (huCD40-muIg per methods); n=4. On the procedure: as §3, with “Plates were incubated for 1 h at 37° C. in a humid environment before washing 3 times with wash buffer and a further single wash with PBS.” left out
PNP substrate was prepared by adding 1 tablet p-Nitrophenyl Phosphate tablets (Sigma, catalogue number N-2765) in 15 mL PNP substrate buffer (12.1 g Tris, 5.84 g NaCl, 1.02 g MgCl_2.6H_2O in 1 L H_2O (adjusted to pH 9.6 with HCl). PNP substrate was added to assay plates at 100 μL/well. Plates were incubated for several minutes (max 30 min) at 37° C. to allow colour development before the reaction was stopped by addition of 3M NaOH. Colour intensity was determined at 405 nm using a micro plate reader (Biorad, model 550).

The target in experiment [9] is T2, human CD40. Description: flow cytometry on JY cells; competitor 1 µg/mL ch5D12 (PG100)-PE; n=4. On the procedure: (§4) Competitive Inhibition of ch5D12 (PG100)-PE and PG102-PE Binding to JY Cells Expressing Human CD40 Using Unlabelled Anti-CD40 Antibody Materials and Methods JY cells (Epstein—Barr virus-transformed human B lymphoblastoid cell line) were grown in Iscove's Modified Dulbecco's Medium (IMDM) containing 10% heat-inactivated foetal calf serum (FCS), 2 mM L-glutamine and 50 μg/mL gentamycin in an air-humidified atmosphere containing 5% CO_2, at 37° C. Cells were harvested on the day of flow cytometric measurements.
(§5) Unlabelled ch5D12 (PG100) (Batch 4) and PG102 (Batch 2) antibodies were used in these experiments. Both antibodies were also used in PE-labelled form for direct determination of binding to JY cells by flow cytometry. Antibodies were custom-labelled with PE by AbD Serotec (Oxford, UK). For each FACS analysis the following protocol was used. JY cells were harvested from cell culture and counted. […] Cells were washed followed by flow cytometric analysis in which the MFI at every concentration was determined using a FACScan flow cyometer (Becton & Dickinson). Five thousand events/sample were measured and analyzed using CellQuest® software (Becton & Dickinson).
In general terms: In flow cytometry, cells or beads pass a laser one at a time.

For experiment [10], the target named is T2, human CD40. Description: flow cytometry on JY cells; competitor 1 µg/mL PG102-PE; n=4. On the procedure:
as §4, §5

Experiment [11] deals with T2, human CD40. Description: flow cytometry competition on JY cells against 1 µg/mL PE-labelled ch5D12 (PG100) or PG102; range told of both antibodies. On the procedure:
as §4, §5

Experiment [12] deals with T1, Recombinant human CD40 extracellular …. Description: SPR (Biacore 3000), immobilised huCD40-Fc, Langmuir (1:1) model. On the procedure:
as §1, §2

For experiment [13] the target is unchanged. Description: SPR (Biacore 3000), immobilised huCD40-Fc, bivalent analyte model; the text value differs from the table's 5.29 × 10^-9 M; bivalent analyte model, not Langmuir. On the procedure:
as §1, §2

Where “and” joins values, the source holds several entries; their conditions need not be identical. Equal entries are not always repeated.

T1 sequence (P25942 21-193): as above

B1: ch5D12 (PG100) (antibody, V domains shown)
VH: QVKLEESGPGLVAPSQSLSITCTVSGFSLSRYSVYWVRQPPGKGLEWLGMMWGGGSTDYNSALKSRLSISKDTSKSQVFLKMNSLRTDDTAMYYCVRTDGDYWGQGTSVTVSS
VL: ELQLTQSPLSLPVSLGDQASISCRSSQSLVNSNGNTYLHWYLQKPGQSPKLLIYKVSNRFSGVPDRFSGSGSGTDFTLKISRVEAEDLGVYFCSQSTHVPWTFGGGTKLEIKR
notes: also called chimeric 5D12
Take B1: the figures for the kon in [1] and in [4] were 1.88e+06 M⁻¹ s⁻¹ and 641000 M⁻¹ s⁻¹, respectively. In addition, in [2], the “-log IC50 for inhibition of IL-8 release by IFN-gamma-pulsed THP-1 cells co-cultured with Jurkat 39.8/50 cells” value was 8.28 -log10 (unit not printed). For the same molecule, the EC50 in experiment [3] was about 0.03 µg/mL. Moreover, the koff in [5] came out at 0.000507 s⁻¹; in experiment [7] it was 0.0016 s⁻¹. In addition, the Kd in experiment [6] is 5.29 nM; in [12], 0.271 nM; in experiment [13], 5.25 nM. For the same molecule, the “-log half-maximal binding concentration” value in [8] was 7.54 -log10 of g/ml (per caption: 7.45 ~ 35 ng/ml). In addition, the “-log IC50” value in experiment [9] was 7.5 -log10 of g/mL (per p-0205: ~20-30 ng/mL); in [10], 7.54 -log10 of g/mL (per p-0205: ~20-30 ng/mL). Besides, the IC50 in [11] was 0.02 µg/mL to 0.03 µg/mL (2×) and 0.13 nM to 0.2 nM (2×).
